In patent US6867180B1, “Use of calreticulin and calreticulin fragments to inhibit endothelial cell growth and angiogenesis, and suppress tumor growth” (The United States of America as represented by the …, priority 1998, dated 2005):

B1: mIL-12: murine IL-12 (Interleukin 12) (protein, UniProt P43431 23-215; P43432 23-335, looked up)
Interleukin-12 subunit alpha: RVIPVSGPARCLSQSRNLLKTTDDMVKTAREKLKHYSCTAEDIDHEDITRDQTSTLKTCLPLELHKNESCLATRETSSTTRGSCLPPQKTSLMMTLCLGSIYEDLKMYQTEFQAINAALQNHNHQQIILDKGMLVAIDELMQSLNHNGETLRQKPPVGEADPYRVKMKLCILLHAFSTRVVTINRVMGYLSSA
Interleukin-12 subunit beta: MWELEKDVYVVEVDWTPDAPGETVNLTCDTPEEDDITWTSDQRHGVIGSGKTLTITVKEFLDAGQYTCHKGGETLSHSHLLLHKKENGIWSTEILKNFKNKTFLKCEAPNYSGRFTCSWLVQRNMDLKFNIKSSSSSPDSRAVTCGMASLSAEKVTLDQRDYEKYSVSCQEDVTCPTAEETLPIELALEARQQNKYENYSTSFFIRDIIKPDPPKNLQMKPLKNSQVEVSWEYPDSWSTPHSYFSLKFFVRIQRKKEKMKETEEGCNQKGAFLVEKTSTEVQCKGGNVCVQAQDRYYNSSCSKWACVPCRVRS
B2: MBP-120-180 calreticulin: recombinant 61 amino acid calreticulin fragment, amino acids 120-180 (Seq. I.D. No. 5), fused to MBP (protein)
chain: CGPGTKKVHVIFNYKGKNVLINKDIRCKDDEFTHLYTLIVRPDNTYEVKIDNSQVESGSLE
modifications: left off: large carriers

Assays:
[1] = test system: human Burkitt lymphoma cell line CA46; experiment: Combination of vasostatin and IL-12 on human Burkitt lymphoma in nude mice; type: in vivo, BALB/c nude mice; settings: both experiments; MBP-vasostatin 100 μg/day, mIL-12 100-200 ng/day s.c.
Protocol: Athymic BALB/c nude mice received 400 rad total body irradiation and 24 hours later were inoculated (4×10^6 cell/mouse) with the human Burkitt lymphoma cell line CA46. A and B. 5 days after cell inoculation the established tumors were treated with daily s.c. inoculations (6 days/week) of either formulation buffer alone (closed circles), MBP-vasostatin alone (Seq. I.D. No. 4; 100 μg/day; open squares), mIL-12 alone (200 ng/day for 8 days followed by 100 ng/day; open circles), or the combination of MBP-vasostatin (Seq. I.D. No. 4) and mIL-12 (same dose used as single agents; open triangles). All mice were sacrificed after 15 days of treatment. C and D. 1 day after cell inoculation, s.c. treatment with MBP-vasostatin (Seq. I.D. No. 4; 100 μg/day; 6 days/week) or formulation buffer was started; s.c. treatment with IL-12 (100 ng/mouse; 6 days/week) was started 2 days later in mice that had received buffer alone or MBP-vasostatin (Seq. I.D. No. 4). Therefore, four groups of mice were tested: Mice receiving buffer alone (closed circles); MBP-vasostatin alone (open squares); IL-12 alone (open circles); and MBP-vasostatin plus IL-12 (open triangles). The mice received 7 days treatment with MBP-vasostatin (Seq. I.D. No. 4) and 5 days treatment with IL-12, and were observed untreated for 14 days at which time all mice were sacrificed. […]

[2] = test system: human Burkitt lymphoma cells (CA46 cell line); experiment: Prevention of human Burkitt lymphoma growth in athymic mice; type: in vivo, BALB/c athymic mice; settings: 4×10^6 CA46 cells; 75 μg/day, 6 days/week, 42 days
Text: FIGS. 6A, 6B, 6C and 6D are graphs showing the inhibition of tumor growth by vasostatin (Seq. I.D. No. 4) and calreticulin (Seq. I.D. No. 3). Burkitt lymphoma cells (CA46 cell line, 1×10^7 cells) were inoculated subcutaneously (s.c.) into BALB/c athymic mice, 6 weeks of age. Beginning on the day of cell inoculation and continuing thereafter daily, 6 days/week, mice were inoculated s.c. with either control buffer (open symbols) or test protein (closed symbols). The results reflect the % mice with tumor as a function of time. A. 12 mice were inoculated with control purified GST protein (Seq. I.D. No. 2; 20 μg/day×14 days), and 13 mice were inoculated with purified GST-calreticulin ([…]; 60 μg/day×14 days). […]
BALB/c nu/nu female mice, 6 weeks of age (National Cancer Institute, Frederick, Md.) maintained in pathogen-limited conditions, received 400 rad (1 rad=0.01 Gy) total body irradiation and 24 hours later were injected s.c. in the right abdominal quadrant with 10^7 exponentially growing human Burkitt lymphoma cells (CA46 cell line; Sgadari et al., Proc. Natl. Acad. Sci. U.S.A. 93:13791-13796, 1996) in 0.2 ml PBS. […] A subcutaneous mass appearing at or proximal to the site of cell inoculation was considered a tumor when it measured at least 0.16 cm^2 in surface area and increased in size by at least 0.1 cm^2 over the following week. […]

[3] = test system: Fetal bovine heart endothelial cells
Protocol: Fetal bovine heart endothelial cells (American Type Culture Collection, ATCC, Manassas, Va.) were grown through passage 12 in DMEM culture medium (BioWhittaker, Walkersville, Md.) containing 10% heat inactivated fetal bovine serum (BioWhittaker), 100 ng/ml bFGF (R&D Systems, Minneapolis, Minn.), and 5 μg/ml gentamicin (Sigma). For proliferation assays, cells were trypsinized (Trypsin/EDTA, Gibco BRL), washed, suspended in culture medium (DMEM containing 10% heat inactivated fetal bovine serum and 5 μg/ml gentamicin), plated (800 cells/well in 0.2 ml culture medium) in triplicate onto 96 well plates, and incubated for 5 days.

[4] = test system: peptides KLGFFKR, KAFFKR and KVFFKR coupled to CNBr-activated Sepharose; experiment: Affinity column binding to integrin / steroid receptor motif peptides; settings: elution with 20 mM EDTA
Text: FIG. 18 is a Western blot analysis of fractions obtained through affinity purification over a column containing KXaa1FFXaa2R (Seq. I.D. No. 11) and KXaa1GFFKR (Seq. I.D. No. 10). Purified supernatants from the VDS-0 cell line containing full length calreticulin and N-terminal fragments of calreticulin were affinity purified over a mixture of peptides KLGFFKR (Seq. I.D. No. 13), KAFFKR (Seq. I.D. No. 33) and KVFFKR (Seq. I.D. No. 32) coupled to CNBr-activated Sepharose. Starting material (lane 1), unbound material (lanes 2, 3) and bound material (lanes 4, 5) were separated by SDS-PAGE, transferred to nitrocellulose, and subsequently stained with a rabbit antiserum against human calreticulin.
To this end, purified preparations of the VDS-O cell line containing full length calreticulin (Seq. I.D. No. 3) as well as N-terminal calreticulin fragments were prepared and tested to determine how these components were retained over an affinity column. To prepare the affinity column, three peptides were synthesized ([…], Seq. I.D. 13; KAFFKR, Seq. I.D. No. 33; and KVFFKR, Seq. I.D. No. 32), purified, and coupled to CNBr-activated Sepharose 4B (Pharmacia). First, the ability of calreticulin, purified from the culture supernatant of the lymphoblastoid cell line VDS-O, to selectively bind to the column and be eluted by a buffer solution containing 20 mM EDTA and 100 mM NaCl, was verified. […]

[5] = test system: bFGF-induced neovascularization; experiment: Murine Matrigel assay of angiogenesis in vivo; set-up: species or system BALB/c nude mice; settings: Exp. 4; concentration not given; bFGF 150 ng/ml
Protocol: The murine Matrigel assay (Passaniti et al., Lab. Invest. 67:519-528, 1992) was employed to evaluate the effects of calreticulin and calreticulin fragments on angiogenesis in vivo. The Matrigel assay was performed as described by Angiolillo et al. (J. Exp. Med. 182:155-162, 1995). Matrigel, a crude extract of the Englebreth-Holm-Swarm tumor, was obtained from Collaborative Biomedical Products, Becton Dickinson Labware, Bedford, Mass. An aliquot (0.5 ml) of Matrigel alone or with desired additives was injected subcutaneously (s.c.) into the mid abdominal region of female BALB/c nude mice, 6-8 weeks old. Five mice were injected with each mixture. After 5-7 days, the animals were sacrificed, Matrigel plugs were removed, fixed in 10% neutral buffered formalin solution (Sigma), and embedded in paraffin. Tissues were sectioned (5μ thickness), and slides stained with Masson's trichrome. Quantitative analysis of angiogenesis in Matrigel plugs utilized a computerized semi-automated digital analyzer (Optomax, 40-10 System, Hollis, N.H.). The instrument was adjusted to evaluate a circular area measuring […] of Matrigel, and within this area, to measure the area occupied by cells. For each plug, 12-15 distinct fields were evaluated. The fields were randomly selected from each plug, and the operator was blind to the experimental design. The average area occupied by cells/1.26×10^5 […] Matrigel field was calculated. Results are expressed as the mean area occupied by cells/Matrigel field.
Matrigel plugs were fixed in 10% neutral buffered formalin solution (Sigma), embedded in paraffin, sectioned at 4 μm, and stained with Masson's trichrome by standard methods.

Row | Molecule | rate of tumor growth and mean weight of tumors compared with formulation buffer [1] | rate of Burkitt tumor growth compared to controls [2] | inhibition of fetal bovine heart endothelial cell proliferation ([3]; 0.5 μg/ml, bFGF-induced) [%] | endothelial cell growth inhibitory activity in vitro, side-by-side comparison on a molar basis ([3]; 0.4-32 nM, bFGF 15 ng/ml, 5 days) | binding to peptide affinity column [4] | Inhibition (%) [5] [%] | Mean Surface Area Occupied by Cells [5]
1 | B1 | reduced |  |  |  |  |  | 
2 | B2 |  | significantly reduced | 65 | similar | failed to bind | 70 | 2,458 mm^2/1.26 × 10^5 mm^2
